From patent US20250319163A1, “TREATMENT OF TYPE 2 DIABETES MELLITUS” (SANOFI, priority 2019, published 2025)

Assays:
[1] = tested on: Japanese patients with type 2 diabetes mellitus inadequately controlled on oral antidiabetic drugs; assay: EFC14114: mean change in HbA1c from baseline to Week 26; type: in vivo, human; settings: on-treatment period, mITT population
[2] = tested on: Japanese patients with type 2 diabetes mellitus inadequately controlled on oral antidiabetic drugs; assay: EFC14114: mean change in fasting plasma glucose from baseline to Week 26; type: in vivo, human; settings: mITT population, MMRM
[3] = tested on: Japanese patients with type 2 diabetes mellitus inadequately controlled on oral antidiabetic drugs; assay: EFC14114: mean change in 2-hour postprandial plasma glucose during a standardized meal test; type: in vivo, human; settings: mITT population, ANCOVA, LOCF
[4] = tested on: Japanese patients with type 2 diabetes mellitus inadequately controlled on oral antidiabetic drugs; assay: EFC14114: documented symptomatic hypoglycemia; type: in vivo, human; settings: plasma glucose ≤70 mg/dL [[…]], on-treatment period; for Documented symptomatic hypoglycemia: patients with events, %: Safety population
[5] = tested on: Japanese patients with type 2 diabetes mellitus inadequately controlled on oral antidiabetic drugs; assay: EFC14114: treatment-emergent adverse events; settings: Safety population; for Patients with any TEAE, %: overview of adverse event profile
[6] = SGLT2 inhibitor use at screening: No
[7] = SGLT2 inhibitor use at screening: Yes

Substance: Gly(A21)-Arg(B31)-Arg(B32) human insulin [Insulin Glargine]
- Mean change in HbA1c from baseline to Week 26, LSMean (SE) [1, 6]: −0.83 (0.047) %
- Mean change in HbA1c from baseline to Week 26, LSMean (SE) [1, 7]: −0.49 (0.091) %
- Mean change in fasting plasma glucose from baseline to Week 26, LSMean (SE) [2, 6]: −1.46 (0.104) mmol/L
- Mean change in fasting plasma glucose from baseline to Week 26, LSMean (SE) [2, 7]: −1.01 (0.205) mmol/L
- Mean change in 2-hour postprandial plasma glucose during a standardized meal test from baseline to Week 26, LSMean (SE) [3, 6]: −1.29 (0.185) mmol/L
- Mean change in 2-hour postprandial plasma glucose during a standardized meal test from baseline to Week 26, LSMean (SE) [3, 7]: −1.38 (0.363) mmol/L
- Documented symptomatic hypoglycemia: Number of events [4, 6]: 62
- Documented symptomatic hypoglycemia: Number of events per patient year [4, 6]: 0.61
- Documented symptomatic hypoglycemia: Number of patients with events per patient year [4, 6]: 0.28
- Documented symptomatic hypoglycemia: patients with events, % [4, 6]: 14.1%
- Documented symptomatic hypoglycemia: Number of events [4, 7]: 8
- Documented symptomatic hypoglycemia: Number of events per patient year [4, 7]: 0.29
- Documented symptomatic hypoglycemia: Number of patients with events per patient year [4, 7]: 0.11
- Documented symptomatic hypoglycemia: patients with events, % [4, 7]: 5.4%
- Patients with TEAE: Any class, % [5, 6]: (63.4%)
- Patients with TEAE: Back pain (PT), % [5, 6]: (2.9%)
- Patients with TEAE: Constipation (PT), % [5, 6]: (1.5%)
- Patients with TEAE: Dental caries (PT), % [5, 6]: (2.4%)
- Patients with TEAE: Diarrhoea (PT), % [5, 6]: (2.9%)
- Patients with TEAE: Dizziness (PT), % [5, 6]: (3.4%)
- Patients with TEAE: Dyspepsia (PT), % [5, 6]: (0.5%)
- Patients with TEAE: Fatigue (PT), % [5, 6]: (2.0%)
- Patients with TEAE: Gastrointestinal disorders (SOC), % [5, 6]: (15.6%)
- Patients with TEAE: General disorders and administration site conditions (SOC), % [5, 6]: (7.3%)
- Patients with TEAE: Headache (PT), % [5, 6]: (2.0%)
- Patients with TEAE: Hyperhidrosis (PT), % [5, 6]: (2.9%)
- Patients with TEAE: Infections and infestations (SOC), % [5, 6]: (35.6%)
- Patients with TEAE: Influenza (PT), % [5, 6]: (1.5%)
- Patients with TEAE: Metabolism and nutrition disorders (SOC), % [5, 6]: (2.9%)
- Patients with TEAE: Musculoskeletal and connective tissue disorders (SOC), % [5, 6]: (12.2%)
- Patients with TEAE: Nasopharyngitis (PT), % [5, 6]: (25.4%)
- Patients with TEAE: Nausea (PT), % [5, 6]: (1.5%)
- Patients with TEAE: Nervous system disorders (SOC), % [5, 6]: (9.3%)
- Patients with TEAE: Pharyngitis (PT), % [5, 6]: (1.0%)
- Patients with TEAE: Skin and subcutaneous tissue disorders (SOC), % [5, 6]: (9.8%)
- Patients with any TEAE leading to permanent treatment discontinuation, % [5, 6]: 0.5%
- Patients with any serious TEAE, % [5, 6]: 3.4%
- Patients with TEAE: Any class, % [5, 7]: (64.3%)
- Patients with TEAE: Back pain (PT), % [5, 7]: (5.4%)
- Patients with TEAE: Dental caries (PT), % [5, 7]: (1.8%)
- Patients with TEAE: Gastrointestinal disorders (SOC), % [5, 7]: (12.5%)
- Patients with TEAE: General disorders and administration site conditions (SOC), % [5, 7]: (5.4%)
- Patients with TEAE: Headache (PT), % [5, 7]: (5.4%)
- Patients with TEAE: Hyperhidrosis (PT), % [5, 7]: (1.8%)
- Patients with TEAE: Infections and infestations (SOC), % [5, 7]: (33.9%)
- Patients with TEAE: Influenza (PT), % [5, 7]: (1.8%)
- Patients with TEAE: Metabolism and nutrition disorders (SOC), % [5, 7]: (1.8%)
- Patients with TEAE: Musculoskeletal and connective tissue disorders (SOC), % [5, 7]: (12.5%)
- Patients with TEAE: Nasopharyngitis (PT), % [5, 7]: (17.9%)
- Patients with TEAE: Nausea (PT), % [5, 7]: (3.6%)
- Patients with TEAE: Nervous system disorders (SOC), % [5, 7]: (10.7%)
- Patients with TEAE: Pharyngitis (PT), % [5, 7]: (5.4%)
- Patients with TEAE: Skin and subcutaneous tissue disorders (SOC), % [5, 7]: (8.9%)
- Patients with any TEAE leading to permanent treatment discontinuation, % [5, 7]: 1.8%
- Patients with any serious TEAE, % [5, 7]: 1.8%
- Patients with any TEAE, % [5, 6]: 63.4%
- Patients with any TEAE, % [5, 7]: 64.3%
